Legend:
Smad1 full length [1] = molecular target: T1, Smad1 full length (UniProt Q15797 Q15797:1-465); assay: pulldown; control duplex without CAGAC; details: tags: GST fusion, E. coli
Experimental: (§1) In vitro GST-SMAD-RNA pull down assay: GST-smad fusion proteins were expressed in E. coli, isolated and bound to glutathione S-sepharose beads. Following partial purification, Smad bound beads were washed 4×5 min at 4° C. in wash buffer (10 mM Tris-HCl pH 7.6, 0.5M LiCl, 0.1% triton) and 1×10 at 4° C. in binding buffer (20 mM Tris-HCl pH 7.6, 0.1M KCl, 0.1% Tween-20, 0.1% Triton). Beads were resuspended in 100 ul binding buffer and pre-incubated with 25 ug tRNA, 1 ng poly-[dI-dC] and 2 μl RNAse inhibitor for 10 minutes before the addition of 10 pmoles synthesized mature miRNA or ˜20 pmoles in vitro transcribed 156 by pri-miR-21. Following 1 hr incubation with rocking at 4° C., beads were washed 4× with binding buffer. 2 consecutive elutions of bound RNA were performed by addition of 100 ul Elution buffer (1% SDS, 0.15M NaCl) followed by rocking at room temperature for 15 min. The eluates were combined, […] Trizol-LS (Invitrogen) was added and the RNA was purified as usual. RNA was re-suspended in 20 μl water and 1 μl was used in a reverse transcriptase reaction followed by quantitative real time PCR to detect relative levels of RNA binding to Smad-GST fusion proteins.

Smad3 full length [2] = molecular target: T2, Smad3 full length (UniProt P84022 P84022:1-425); assay: pulldown; control duplex without CAGAC; details: tags: GST fusion, E. coli
T2 sequence (P84022 whole entry, the tested form may be a part, one chain of several): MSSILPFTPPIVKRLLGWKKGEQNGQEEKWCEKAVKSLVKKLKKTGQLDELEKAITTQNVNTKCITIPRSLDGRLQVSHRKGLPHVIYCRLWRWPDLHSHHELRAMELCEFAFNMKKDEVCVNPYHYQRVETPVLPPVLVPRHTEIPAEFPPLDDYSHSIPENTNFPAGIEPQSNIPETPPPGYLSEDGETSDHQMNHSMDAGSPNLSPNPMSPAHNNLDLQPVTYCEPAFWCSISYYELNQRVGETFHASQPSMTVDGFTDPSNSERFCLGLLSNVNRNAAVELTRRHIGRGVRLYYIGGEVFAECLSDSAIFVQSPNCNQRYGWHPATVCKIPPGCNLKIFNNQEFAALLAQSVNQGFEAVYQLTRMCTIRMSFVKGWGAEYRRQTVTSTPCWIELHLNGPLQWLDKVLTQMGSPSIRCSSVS
Experimental: as §1

Smad1 MH1 domain [3] = molecular target: T3, Smad1 MH1 domain (UniProt Q15797 Q15797:1-219); assay: pulldown; specific for miR-21 duplex; details: tags: GST fusion, E. coli
T3 sequence (Q15797 1-219, one chain of several): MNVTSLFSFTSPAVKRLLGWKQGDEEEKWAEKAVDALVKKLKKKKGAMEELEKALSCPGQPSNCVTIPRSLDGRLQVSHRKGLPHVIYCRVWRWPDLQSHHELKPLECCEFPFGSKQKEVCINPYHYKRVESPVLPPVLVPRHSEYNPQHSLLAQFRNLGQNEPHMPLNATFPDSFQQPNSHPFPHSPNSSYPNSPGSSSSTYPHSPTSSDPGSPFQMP
Experimental: as §1

Smad4 full length = Smad4 full length (UniProt Q13485 Q13485:1-552); assay: pulldown; details: tags: GST fusion, E. coli
Sequence of Smad4 full length (Q13485 whole entry, the tested form may be a part, one chain of several): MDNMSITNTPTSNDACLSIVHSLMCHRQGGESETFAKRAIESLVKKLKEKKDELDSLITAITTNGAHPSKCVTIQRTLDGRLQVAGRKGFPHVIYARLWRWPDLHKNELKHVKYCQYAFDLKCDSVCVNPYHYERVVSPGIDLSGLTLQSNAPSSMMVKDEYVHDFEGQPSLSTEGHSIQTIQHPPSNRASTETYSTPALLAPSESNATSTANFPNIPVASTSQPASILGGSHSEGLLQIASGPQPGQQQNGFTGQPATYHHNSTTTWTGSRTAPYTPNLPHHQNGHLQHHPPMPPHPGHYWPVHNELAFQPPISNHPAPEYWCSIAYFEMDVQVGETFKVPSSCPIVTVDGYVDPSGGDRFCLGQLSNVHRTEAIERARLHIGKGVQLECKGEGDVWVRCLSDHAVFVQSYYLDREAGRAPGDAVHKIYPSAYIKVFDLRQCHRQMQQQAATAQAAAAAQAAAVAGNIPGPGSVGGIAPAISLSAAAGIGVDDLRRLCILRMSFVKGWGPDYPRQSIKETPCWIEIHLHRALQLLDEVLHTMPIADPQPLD
Experimental: as §1

Smad1 = Smad1 (UniProt Q15797 Q15797:1-465); assay: RNA-ChIP; details: tags: Flag, Cos7; hairpin with flanks
Sequence of Smad1 (Q15797 whole entry, one chain of several): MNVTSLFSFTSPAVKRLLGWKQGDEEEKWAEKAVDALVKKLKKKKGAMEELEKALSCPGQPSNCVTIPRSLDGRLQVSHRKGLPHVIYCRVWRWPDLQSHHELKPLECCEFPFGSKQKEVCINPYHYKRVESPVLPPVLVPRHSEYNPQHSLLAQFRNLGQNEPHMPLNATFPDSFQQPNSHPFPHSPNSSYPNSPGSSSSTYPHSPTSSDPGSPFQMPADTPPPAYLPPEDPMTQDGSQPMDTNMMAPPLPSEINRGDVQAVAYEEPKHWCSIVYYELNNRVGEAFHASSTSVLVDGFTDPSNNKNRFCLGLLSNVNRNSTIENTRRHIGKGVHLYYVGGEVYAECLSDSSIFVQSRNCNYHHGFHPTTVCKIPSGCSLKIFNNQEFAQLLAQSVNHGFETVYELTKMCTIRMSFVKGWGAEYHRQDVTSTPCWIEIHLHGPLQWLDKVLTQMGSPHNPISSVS
Experimental: RNA-ChIP. Was performed as previously described [Fukuda, T. et al., Nat Cell Biol 9, 604-611 (2007)]. Briefly, PASMCs or Cos7 cells were crosslinked for 15 minutes with 1% formaldehyde, the cell pellet was resuspended in Buffer A (5 mM PIPES, pH 8.0, 85 mM KCl, 0.5% Nonidet P-40). After 10 min on ice, the crude nuclei fraction was isolated by centrifugation, and then suspended in Buffer B (1% SDS, 10 mM EDTA, 50 mM Tris-HCl, pH 8.1). After nuclei were disrupted by sonication, the lysates were cleared and subjected to immunoprecipitation with anti-Flag, anti-Smad1/5/8, Smad2/3, or p68 antibody, prior to stringent washing, and elution. The RNA was isolated using Trizol (invitrogen). Pellets were resuspended in 100 μl TE and incubated with DNase I (10 U) for 30 min at 37° C. to remove any remaining DNA. Following extraction with phenol:chloroform (5:1), RNA was precipitated with ethanol and dissolved in 20 μl of water. […] of RNA was used for a 20 μl cDNA synthesis reaction. Quantitative PCR reactions were then performed by real-time PCR machine (iQ5, Bio-Rad). Average of three experiments each performed in triplicate with standard errors are presented.

Smad1 MH1 domain [4] = molecular target: T3, Smad1 MH1 domain; assay: pulldown; excess yeast tRNA; details: tags: GST fusion, E. coli
Experimental: (§2) To examine the interaction of SMAD proteins with double stranded CAGAC sequences of miRNA we performed RNA pull down experiments. Gst-Smad fusion proteins were expressed in E. coli and partially purified. As a proof of principal, we used mature miR-21 sequences (see below). ssRNA oligonucleotides were annealed to make dsRNA. GST-Pull down experiments were performed using the standard methods including aspects of those disclosed herein in the presence of excess amount of non-specific RNAa (yeast tRNAs). Full length GST-SMAD1 fusion protein and a GST-SMAD1 N-terminal (n219) MH1 domain interact with double stranded CAGAC sequences of miR-21
(§3) In vitro GST-SMAD-RNA pull down assay: GST-smad fusion proteins were expressed in E. coli, isolated and bound to glutathione S-sepharose beads. Following partial purification, Smad bound beads were washed 4×5 min at 4° C. in wash buffer (10 mM Tris-HCl pH 7.6, 0.5M LiCl, 0.1% triton) and 1×10 at 4° C. in binding buffer (20 mM Tris-HCl pH 7.6, 0.1M KCl, 0.1% Tween-20, 0.1% Triton). […] RNA was re-suspended in 20 μl water and 1 μl was used in a reverse transcriptase reaction followed by quantitative real time PCR to detect relative levels of RNA binding to Smad-GST fusion proteins.

Smad1 full length [5] = molecular target: T1, Smad1 full length; assay: pulldown; excess yeast tRNA; details: tags: GST fusion, E. coli
Experimental: as §2, §3

Smad1 MH1 domain [6] = molecular target: T3, Smad1 MH1 domain; assay: pulldown; MH1 sufficient; details: tags: GST fusion, E. coli
Experimental: as §1

Smad3 full length [7] = molecular target: T2, Smad3 full length; assay: pulldown; details: tags: GST fusion, E. coli
Experimental: as §1

Smad1 full length [8] = molecular target: T1, Smad1 full length; assay: pulldown; tRNA and poly dI-dC, 0.1 M KCl, 4 C; details: tags: GST fusion, E. coli
Experimental: as §1

T1 sequence (Q15797 whole entry, the tested form may be a part, one chain of several): as the sequence (Q15797 whole entry, one chain of several) above

B1: cel-miR-67 RNA duplex (dsRNA)
RNA 1: UCACAACCUCCUAGAAAGAGUAGA
RNA 2: UCUACUCUUUCUAGGAGGUUGUGA
B1: no binding (Smad1 full length [1]); no binding (Smad3 full length [2]); no binding (Smad1 MH1 domain [3]). B1: no binding (Smad4 full length).

B2: pri-miR-21 from pCMV-miR-21 (480 nt; hairpin sequence given) (ssRNA)
RNA: UGUCGGGUAGCUUAUCAGACUGAUGUUGACUGUUGAAUCUCAUGGCAACACCAGUCGAUGGGCUGUCUGACA
For B2, the binding signal (Smad1) was 3 fold induction by BMP4.

B3: miR-21 duplex (annealed oligos) (dsRNA)
RNA 1: UAGCUUAUCAGACUGAUGUUGA
RNA 2: UCAACAUCAGUCUGAUAAGCUA
B3: binds (Smad1 MH1 domain [4]); binds (Smad1 full length [5]).

B4: miR-21 RNA duplex (dsRNA)
RNA 1: UAGCUUAUCAGACUGAUGUUGA
RNA 2: UCAACAUCAGUCUGAUAAGCUA
B4: binds (Smad1 MH1 domain [6]); no binding (Smad4 full length); binds (Smad3 full length [7]). B4: binds (Smad1 full length [8]).
